{"source": "paper PMC5352143", "about": "“Lactoferrin binding protein B – a bi-functional bacterial receptor protein” (PLoS Pathogens, 2017)", "molecular_target": "T1, holo human lactoferrin (iron-loaded hLf) (human)", "T1 construct": "human lactoferrin, iron-loaded (holo) form; Iron-loaded form; also called holo-hLf; holo-Lf; source: bought: Agennix (named for XL-MS)", "assay": "BLI; Octet RED 96; biotinylated MBP-LbpB constructs loaded from crude E. coli extracts on streptavidin sensors; holo-hLf 10-800 nM in 1 X PBS pH 7.4, 0.002% Tween-20, 0.1 mg/mL BSA; steady-state fit, apparent KD", "conditions": "one partner purified"}
{"binder": "LbpB C-terminal lobe with N-terminal biotin acceptor peptide, fused to MBP (BLI construct) (domain or fragment, biotin on the biotin acceptor peptide) ENAADTKPALSSGKHTKILDSLKISVDEASDKNPREFAISSMPDFGHPDKLLVEGREIPLVNKEQTIELADGRKTTIRTCCDFLTYVKIGRMQTERPAAKPKAQDEERDEEDTGVDSVEEGEDEIDDEEGTEDAAVKDEGSEEDEAVEGEDEAEEPEEESPTEEGGSGSDGILPAPEAPKGRNIDLFLKGIRTAETDIPKTGEAHYTGTWEARIGKPIQWDNQADKEAAKAVFTVDFGKKSISGTLTEENGVEPAFHIENGKIEGNGFYATARTRENGINLSGNGSTDPKTFQASNLRVEGGFYGPQAEELGGIIFNNDGKSLGITEGTENKVDVEAEVDAEVDVGKQLESEVKHQFGVVFGAKKDMQEVEK", "values": [{"measurement": "Kd", "result": "279 ± 15", "unit": "nM"}]}
